Source: patent US20260232830A1 (JIANGSU HENGRUI PHARMACEUTICALS, published 2026)

Tests used:
[1] = molecular target: T1, MUC1-C-L-6×His (His-tagged human MUC1-C protein extracellular domain) (human, UniProt P15941 961-1152); assay: SPR Biacore 8K, antibody on Protein A chip, 1:1 fit
T1 construct: template human MUC1 UniProt P15941; expressed in 293 cells; also called hMUC1-C-L-his; MUC1-C-L-His

[2] = molecular target: T2, Cynomolgus MUC1 his (Cat. #MU1-C52H5, Acro) (cynomolgus); assay: SPR Biacore T200, antibody on Protein A chip, 1:1 fit
T2 construct: bought reagent; also called Cyno MUC1-His

human EGFR-His antigen [3] = molecular target: T3, human EGFR-His antigen (human, UniProt P00533 25-645); assay: SPR Biacore 8K, antibody on Protein A chip, 1:1 fit
T3 construct: also called hEGFR-His

[4] = molecular target: T4, cynomolgus EGFR-his (Cat. #90285-C08H, Sino Biological) (cynomolgus, UniProt A0A2K5WK39 25-645); assay: SPR Biacore T200, antibody on Protein A chip, 1:1 fit
T4 construct: bought reagent; also called Cyno EGFR-His

human EGFR-His antigen [5] = molecular target: T3, human EGFR-His antigen; assay: as above
human EGFR-His antigen [6] = molecular target: T3, human EGFR-His antigen; assay: SPR Biacore 8K, antibody on Protein A chip; Ag1 blank, Ag2 hEGFR-His
human EGFR-His antigen [7] = molecular target: T3, human EGFR-His antigen; assay: SPR Biacore 8K, antibody on Protein A chip; Ag1 hMUC1-C-His bound first, Ag2 hEGFR-His

| Binder | Kd [1] [nM] | Kd [2] [nM] | Kd (human EGFR-His antigen [3]) [nM] | koff (human EGFR-His antigen [3]) [s⁻¹] | kon (human EGFR-His antigen [3]) [M⁻¹ s⁻¹] | Kd [4] [nM] | Kd (human EGFR-His antigen [5]) [nM] | Kd (human EGFR-His antigen [6]) [nM] | Kd (human EGFR-His antigen [7]) [nM] |
| --- | --- | --- | --- | --- | --- | --- | --- | --- | --- |
| M4-H1L1 (antibody, human IgG1, kappa, humanized, human IgG1) heavy: not shown light: DIQMTQSPSSLSASVGDRVTITCSASSSVFNMNWYQQKPGKSPKLWIYDISKLASGVPSRFSGSGSGTDFTLTISSLQPEDFATYYCQQRSFYPPTFGGGTKVEIKRTVAAPSVFIFPPSDEQLKSGTASVVCLLNNFYPREAKVQWKVDNALQSGNSQESVTEQDSKDSTYSLSSTLTLSKADYEKHKVYACEVTHQGLSSPVTKSFNRGEC | 5.27 | 18.9 |  |  |  |  |  |  |  |
| M4H1L1-ZalH4 (bispecific antibody, human IgG1, kappa, also called anti-EGFR-MUC1 bispecific antibody) heavy: not shown light: DIQMTQSPSSLSASVGDRVTITCSASSSVFNMNWYQQKPGKSPKLWIYDISKLASGVPSRFSGSGSGTDFTLTISSLQPEDFATYYCQQRSFYPPTFGGGTKVEIKRTVAAPSVFIFPPSDEQLKSGTASVVCLLNNFYPREAKVQWKVDNALQSGNSQESVTEQDSKDSTYSLSSTLTLSKADYEKHKVYACEVTHQGLSSPVTKSFNRGEC chain 1: not shown chain 2: DIQLTQSPSSLSASVGDRVTITCRASQDISSALVWYQQKPGKAPKLLIYDASSLESGVPSRFSGSESGTDFTLTISSLQPEDFATYYCQQFNSYPLTFGGGTKVEIKGGGGSSGAPRFLTRPKASVVSVGKDATLSCQIVGNPFPQVSWEKDKQPVTAGVRFRLAQDGDLYRLKILDLQLSDSGQYVCRARNAHGEAFACLGLQVDAEA |  | 17.8 | 10.4 | 0.00144 | 139000 | 243 | 14.8 | 18 | 19.6 |
